Measurements reported in patent publication US20190284279A1.

Experiments:
[1] = target: human CD19 antigen on the surface of B lymphoma cells (Raji, Daudi, IM-9, Namalwa) (human) (UniProt P15391); test: cell-based or functional assay
[2] = target: human CD3 (CD3ε molecule) on the surface of Jurkat T cells (human) (UniProt P07766); test: cell-based or functional assay
[3] = target: human CD3 (CD3ε molecule) on the surface of Jurkat T cells (human) (UniProt P07766); test: flow cytometry on Jurkat cells
[4] = target: human CD19 antigen on the surface of B lymphoma cells (Raji, Daudi, IM-9, Namalwa) (human) (UniProt P15391); test: flow cytometry on Raji cells; control antibody at 5 µg/ml
[5] = target: human CD19 antigen on the surface of B lymphoma cells (Raji, Daudi, IM-9, Namalwa) (human) (UniProt P15391); test: flow cytometry on Raji cells; control antibody at 15 µg/ml
[6] = target: human CD19 antigen on the surface of B lymphoma cells (Raji, Daudi, IM-9, Namalwa) (human) (UniProt P15391); test: flow cytometry on Raji cells; control antibody at 0.185 µg/ml
[7] = target: human CD19 antigen on the surface of B lymphoma cells (Raji, Daudi, IM-9, Namalwa) (human) (UniProt P15391); test: flow cytometry on Raji cells; control antibody at 0.556 µg/ml
[8] = target: human CD19 antigen on the surface of B lymphoma cells (Raji, Daudi, IM-9, Namalwa) (human) (UniProt P15391); test: flow cytometry on Raji cells; control antibody at 1.667 µg/ml

ED50 of CD69 expression (Mean FL2-A) on Jurkat E6-1 cells co-cultured with Raji cells (10:1) [2] [ng/mL] | EC50 [3] [nM] | average fluorescence value [4] | average fluorescence value [5] | average fluorescence value [6] | average fluorescence value [7] | average fluorescence value [8] | Substance | ED50 of killing of Daudi cells by human PBMC (Fluo 3-AM release) [1] [ng/mL] | ED50 of killing of Namalwa cells by human PBMC (Fluo 3-AM release) [1] [ng/mL] | ED50 of killing of Raji cells by human PBMC (Fluo 3-AM release) [1] [ng/mL]
– | – | – | – | – | – | – | BLI-193 (tandem single chain antibody structure, blinatumomab) (bispecific antibody) | 2.57 | 0.107 | 0.0868
1280 | 6.09 | 3460 | 3710 | 3860 | 3390 | 3570 | OKT3 monoclonal antibody (mouse anti-human CD3 monoclonal antibody) | – | – | –
